Measurements taken from the DeepSol protein solubility set.

assay: soluble on expression in E. coli; label from the status in PepcDB or PDB records

Sequence | soluble on expression in E. coli
MTDNQSKSLELILTDSDDAHMLLGTHDKHIKFLEENTHVTINSRGEVIQLIGESSEVELVASVLRALQTLIQRGIKVHTPDVVSALKMAKAGNLEAFIAMYEEEIMKDHHGRAIRIKNVGQKKYIDAVKTHDVIFGVGPAGTGKTFLAVVMAVAALKKGEVQKIILTRPAVEAGESLGFLPGDLKEKVDPYLRPVYDALYQIFGMDHTNRLMERGVIEIAPLAYMRGRTLDDAFVILDEAQNTTVAQMKMFLTRLGFSSKMIVNGDTSQIDLPRGVTSGLVNAERTLKDIEKIAFVNFEASDVVRHPVVAQIIQAYEKEQQKHS | not soluble
MKIGIIGATGRAGSRILEEAKNRGHEVTAIVRNAGKITQTHKDINILQKDIFDLTLSDLSDQNVVVDAYGISPDEAEKHVTSLDHLISVLNGTVSPRLLVVGGAASLQIDEDGNTLLESKGLREAPYYPTARAQAKQLEHLKSHQAEFSWTYISPSAMFEPGERTGDYQIGKDHLLFGSDGNSFISMEDYAIAVLDEIERPNHLNEHFTVAGKLEHHHHHH | soluble
GSFEEDLSQKNTWWSRGIYELLGYTPFEVEPRAELFFQHIKEPHRTLIKEHYLHLNQSQETQYISEDYEILTKKGEGRWLNSSVKLIRDEKGTLLKAQGAILDVT | not soluble
MGSDKIHHHHHHMHYEEGDDLVASSMTYSVKEMSMRNVRPVLLSLGLLSTVGIATAADTTTFNVKIAVTKACTITAASATDVDFGSVLSTSTANADANGSVTAQCTALTPYNIALSAGSNAGTANDVTTRRMKNTDALVTTNNFVAYQLYQDLGRSTVWGSTSGTNTLSRTATGINQIYPVYGRVTNPSAGNPATGTYQDTITATIIY | not soluble
MSLANQPIDLLMQPKWRVIDQSSLGPLFDAKQSFAMDDTLCMSVGKGVSPATARSWVHHDTIVLGIQDTRLPFLQDGISLLESEGYRVIVRNSGGLAVVLDDGVLNISLIFEDEKKGIDIDKGYEAMVELMRRMLRPYNAKIEAYEIEGSYCPGSYDLSINGKKFAGISQRRVRGGVAVQIYLCADKSGSERADLIRRFYQAALKDKQNDKKGVYPEIRPETMASLSELLQKDISVQDLMFALLTELKALSTHLYSAGLSIDEEMEFEKNLVRMAERNAKVFGEGHHHHHH | soluble
STTGLVTPGDVIGKATEFKAGKGAYVNDATIYASLTGTCRIVSPLPESIDQRAIVEVTGHKAHGPIPETGSVVIARVTKVMTKMAAVDILCVGSKAVRENFAGVIRQQDVRATEIDKVDMHQSFHAGDIVRAMVLSLGDARAYYLSTAKNELGVVSAESAAGETMVPISWTEMQCPLSGQTEQRKVAKVGN | soluble
MGSDKIHHHHHHMHTQVNELFSELWQNYVSVTPSAAKIHALLGSSQQDDVQNDHIALRTFNIEKINLDKLAAHFLALGYKENGEYHFEAKKLYAKHYEHPDPTQPKVFISELLLEKCSPELQAIVHKLVDQIDVAAVTADNFLYSGRHWSIDQATYNTLVKESEYAAWVSVWGFRANHFTVSVNALKNFETLVSVNDTLKAAGFALNTSGGEIKGSQEVMLKQSSTLADEALVEFTDGSKMVPSCFYEFARRFPMADGTLYPGFVAASADKIFESTNAR | not soluble
YEPEGNRADYWRFARALYAAGFRAGELAYNCFSYHFTPAGSMMETAAHAVGCTVFPGGTGQTEQQVRAIHDLAPSGYTGTPSFLKLILEKADELGIRLDSLRRALVSGEAFPPSLRDWLAARGIEGYQAYGSADLGMIAFETPAREGLVVGED | not soluble
MTRRCELLVVGAGPAGMAAATQSAALGVDTLLLDEQATPGGQIYRAITTTALTRPDILGPDYWHGASLLEPLRASGAAYLSGATVWAVSRGAEAGDGGAFEVAYSVGGQADILRARHILLATGALERPFPIPGWTLPGVVTAGAAQILLKTAAIVPGEHAVLAGGGPLLYLLAWQYLNAGVRIERLLETTAPGGLARALPHALDFLRSPYLAKGLKLMRAVRAHVPITRGVRDLRAQGRERLESLSYRAGGRTHDMPARHLMLHQGVVPNLNLSRALGVDHQWNPTQACWQPRVDDWGATSVAGIGIAGDGADIGGAIAAEHRGRLAALQAAVALGRIDDARRDREARAPRRALARAMRGRAFFDVLYRPADAYRRPGDDTIVCRCEEITAGQIRATVRLGCSGPNQMKAFLRCGMGPCQGRLCGLTVSELIAHERGVPLPEVGYYRLRFPTKPVTLGELASLPQTEASRQAVVRLKKTALEHHHHHH | not soluble
MGSSHHHHHHSSGRENLYFQGMNDSIHGGLRVCQSTPLVQLQDRGRFGCRHLGVTQGGALDWLSMGWANWLLGNPLDAAVIEIALGGFVADCRADGWLALAGGDLGATLDGQPLPAWGAFAVRGGQRLAFAHPRQGARAYLAAPGGFAGERQLGSLATVAREGLGGPRADGKALAAGDSLGWLADGARPRALPLPSERIMDCTGEARLELILGAQIGDFPAMSLFDAFNGDWQVDTRADRMGVRLLGPRLECRQQSMISEGIALGAVQVPPDGQPIVLLNDRQTIGGYPRLGALAPLALARLAQCLPGQRVRLLPTVQEAAHREHRRLLAAWDA | soluble
MTPPIAADYTAQAVSTDTIGYLHSTESGAGVDGPGMRFVFFVSGCQFRCLYCHNPDTWKLHNGRQVSVEQALSEVAPYARFLKFAGGVTISGGEPLMQHEFVGELFHEIKQRFGLHTALDTQGFLHERVSDAWFDDVDLVMLDIKHSDPEKYQALTGQPLQPTLDFALRLKRLRKKMWIRYVLVPGLTDGDADIEKLADFAASLGDVVERVEVLPFHQLGKDKWAQLGMEYQLNDTPIPTAEQAAHARALFASRGLKVTLEHHHHHH | soluble
MGSDKIHHHHHHLAGERENWFVSIPPRRGSVLDVRGRKIVYDSPEYVAYLDVDFFKRQNGDIKALEKTLQNCGITKSAEEVMEYKFFKLTEGEDKVDVLKKIESELLPFVNIELVYTRKKIQDYATGILLGTVIDGTGKGGIEGFFDDQLQGKRKGFLELRYRGARLSPTLVNYSPPENGKDVWLSLDLDLQRRVYDIISKAVEGNSAEAGHVIVMESKTGRILSMVTTRNWNDLIGGYIEPGSTIKPLVYAIALETHSASPDFTVECEGSIKPVEQLPVIIRDIEKHGLVDFSAGIVKSCNVMSVKVGELITEKTGVEGFYEWLRKVGFGEKTGIEMEGEIAGVLREPKKWSLIDPAEISIGQGIGVTPVQLIASLNIFANDGYWVKPTILKDSPVKKRRVFSKETTDVIRQAMVRVVEEGTGKLAQVKGIAIAGKTGTAQKAVGGEYRNLYHSLFVGFFPAEDPKYTILVHLDSPSGAFYGGEVAAPVFREIVEILTEKEDGRIRIVKGLMPDLRGLPVRDALLVLESLGVKDVEIKGKGWKVSEQTPPPNHPLEGPVILFLSDQK | not soluble
MVITLPKLKYALNALSPHISEETLNFHYNKHHAGYVNKLNTLIKDTPFAEKSLLDIVKESSGAIFNNAAQIWNHTFYWDSMGPDCGGEPHGEIKEKIQEDFGSFNNFKEQFSNILCGHFGSGWGWLALNNNNKLVILQTHDAGNPIKDNTGIPILTCDIWEHAYYIDYRNDRASYVKAWWNLVNWNFANENLKKAMQKLEHHHHHH | soluble
MGSDKIHHHHHHMDKALLHFDNSYARDLEGFYAPWQAATAPAPRLLLLNQALAEELGLDSATLDDELGAAIFSGNQVPEGALPLAQAYAGHQFGHFSPQLGDGRALLLGELIDRHGRRRDMQLKGSGRTPFSRGGDGKAALGPVLREYVIGEAMHALGIPTTRALAAVTTGETVRRETWLPGAILTRIAASHIRVGTFQFFAARNENVRVKQLADYTIARHYPPLKGADNPYLELFAAVSAAQAALIARWMLVGFIHGVMNTDNMSIAGETIDYGPCAFMDNYDPETVFSSIDAHGRYAYAHQPLIAQWNLTRFAETLIDLVHPDPDEAARLLTEQLNEFPKLYTRHWLDGMRAKMGLATAEDGDLALAQALLSAMEGQNADFTQVFRGLSAAVRGDPAQVRAHFVNQAPFDLWLAQWQARLAHESATAEARAEAMDQVNPLYIPRNHKVEEALAAATLNQDLTPFKALLAVLERPFAERPGLESYTQPAPEDFGPFKTFCGT | not soluble
MFRRKLTALDYHNPAGFNCKDETEFRNFIVWLEDQKIRHYKIEDRGNLRNIHSSDWPKFFEKYLRDVNCPFKIQDRQEAIDWLLGLAVRLEYGDNAEKYKDLVPDNSKTADNATKNAEPLINLDVNNPDFKAGVMALANLLQIQRHDDYLVMLKAIRILVQERLTQDAVAKANQTKEGLPVALDKHILGFDTGDAVLNEAAQILRLLHIEELRELQTKINEAIVAVQAIIADPKTDHRLGKVGRLEHHHHHH | soluble
GMKEDTIEIAGFHAHVYFDAASRDVAARVREGLGARFEVQLGRWFDKPIGPHPKGMYQVAFLPNQFDKVVPWLMLNREGLDILVHPETGDAVSDHAVYSLWLGAALALNIEFLRQLSSTSSN | soluble
MNEPPVSVVLPTYDRPEILRNAVKSVQEQTYRHIELVVVDDHSPTPAADTLSPLSFDELTVEIIRHEENRGANEARNTGIRESTGEYIAFLDDDDDWAPSKIEKQVAVFREASPEVGVVYTGSEYVYDDYVRTVVFSLEGDVTEEMLRGRSLGEFTTLMVRRDVAMAAGLPDTDFPSWQDRDWLLRLSCHCKFKTVPEALTTRRRKTGEDSISDNFEEKRDISYPLFIEKHRDLAAEYGWRCERAFMAATTESLGQEALKNGYYADAKKYFLKALRYHPLDRSRLVYALVAYGGKYTYGAAHTLASLLHRVRTDTIHKLEHHHHHH | not soluble
MATRADEDGDTPLHIAVVQGNLPAVHRLVNLFQQGGRELDIYNNLRQTPLHLAVITTLPSVVRLLVTAGASPMALDRHGQTAAHLACEHRSPTCLRALLDSAAPGTLDLEARNYDGLTALHVAVNTECQETVQLLLERGADIDAVDIKSGRSPLIHAVENNSLSMVQLLLQHGANVNAQMYSGSSALHSASGRGLLPLVRTLVRSGADSSLKNCHNDTPLMVARSRRVIDILRGKATRPAS | soluble
MLEIEIVYGLPDRQVLKTMQLAEGTTVRAAALQSGLDGIFEDLNLHSAPLGIFGKAVKDDTPLRDGDRIEVYRPLLIDPKEARRKRVQNQEE | not soluble
MAHHHHHHSLAPLISVLDLTPVSTGQQPGEALRHTLELAEVADSYQYTRFWIAEHHNSGAFVSAATEILIALAAARTGRIRVGSGGVMLPNHSPLKVAENFMSLEALFPGRIDLGLGRAPGTDGRTALALRRSREALAADDFPTQIALLRAFAGETPWPAGSVFDGVLAEPRGVKLPPLWILGSSLYGAQLAGELGVGYAFAYHFSQEDPAVAVQTYHRHFRPGPLAEPYAILGVNALAAPTEDEARDLSLTSAALSLGILSGQRGVLRSPEEARQWLQEMDTDPAKLLKKARIGTPEQVWASLQELGESTGAQEMLVTTYAHDPLKRQQSYRLLAQAAGMTPQKEEG | soluble
MGSDKIHHHHHHMDEQTHTHLSRRRTLTASAGVLSAGLAGCITSGDTDGDPESGPTVAVASFFSFYDFARKIVADTPITVRNLIPTGLHGHGWEPNASITKEILDADALIHVGPDFQPWVDRAIESLDDDDADTRRINVRDGVELVDLAASLDRDEEGIGQNRGKDPHFWLDPNRAKQSIDNLTEGFVQLAPSHENTLRTNAAAYKSGVLDELDDAYAAIFDRADRDVVQLAAHNAFQYLGTAYDIEMRPLVVNLAASGTVKASDIMDAKQTIDDNDITYIGAAVFETRRPAEQLLSETDVEAYYPVTPYAGVREDWVQQGWGYEEIARNINMPTFKLLLGNAAPDDVGGAEWNATWRNFE | not soluble
